System: Escherichia coli TOP10
Assay: shrunken log2 fold change of peptide-encoding DNA abundance (4.5 h post-induction vs induction); higher = less antimicrobial activity (less host growth inhibition)
Conditions: time post-induction: 4.5 h; library: site-saturation at positions 5, 18, 19, 20
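Further: peptides expressed intracellularly from a pBAD plasmid library in pooled LB shake-flask culture, induced with 0.3% L-arabinose, DNA abundance read by NGS, three biological replicates, DESeq2 with apeglm shrinkage.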

Sequence | shrunken log2 fold change
RRIRQRPPRLPRPRPRPYGGPRP | -0.29
RRIRSRPPRLPRPRPRPPHAPRP | 0.629
RRIRERPPRLPRPRPRPCNAPRP | -0.0483
RRIRPRPPRLPRPRPRPVSSPRP | -0.0455
RRIRSRPPRLPRPRPRPKLDPRP | -0.037
RRIRYRPPRLPRPRPRPVMAPRP | -0.335
RRIRRRPPRLPRPRPRPYIWPRP | -0.335
RRIRMRPPRLPRPRPRPNMKPRP | 0.0548
RRIRDRPPRLPRPRPRPYMPPRP | -0.517
RRIRWRPPRLPRPRPRPTFHPRP | 0.00721
RRIRFRPPRLPRPRPRPYVRPRP | -0.0985
RRIRARPPRLPRPRPRPKNNPRP | -0.0541
RRIRYRPPRLPRPRPRPGHAPRP | 3.02
RRIRHRPPRLPRPRPRPVYEPRP | 0.015
RRIRKRPPRLPRPRPRPAPIPRP | 0.716
RRIRSRPPRLPRPRPRPKKYPRP | -0.3
RRIRVRPPRLPRPRPRPTMDPRP | -0.116
RRIRNRPPRLPRPRPRPYTWPRP | -0.547
RRIRERPPRLPRPRPRPWYDPRP | -0.392
RRIRGRPPRLPRPRPRPSYDPRP | -0.0196
RRIRKRPPRLPRPRPRPMPGPRP | 0.0564
RRIRCRPPRLPRPRPRPGEQPRP | 0.262
RRIRTRPPRLPRPRPRPEFDPRP | 0.214
RRIRRRPPRLPRPRPRPICWPRP | 0.388
RRIRRRPPRLPRPRPRPKDLPRP | -0.0233

Sequence | shrunken log2 fold change
RRIRRRPPRLPRPRPRPVPGPRP | 0.402
RRIRKRPPRLPRPRPRPLTDPRP | -0.0168
RRIRHRPPRLPRPRPRPMGVPRP | -0.00663
RRIRKRPPRLPRPRPRPEAGPRP | 1.17
RRIRERPPRLPRPRPRPFLEPRP | -0.436
RRIRSRPPRLPRPRPRPFNEPRP | -0.19
RRIRFRPPRLPRPRPRPMEGPRP | -0.0345
RRIRYRPPRLPRPRPRPYRDPRP | -0.0114
RRIRNRPPRLPRPRPRPVQLPRP | 0.176
RRIRFRPPRLPRPRPRPCGEPRP | -0.0646
RRIRMRPPRLPRPRPRPERMPRP | 1.35
RRIRVRPPRLPRPRPRPWDFPRP | -0.0763
RRIRTRPPRLPRPRPRPNWYPRP | -0.382
RRIRMRPPRLPRPRPRPINDPRP | -0.401
RRIRSRPPRLPRPRPRPREPPRP | 0.284
RRIRPRPPRLPRPRPRPPYNPRP | -0.495
RRIRLRPPRLPRPRPRPIVRPRP | -0.151
RRIRRRPPRLPRPRPRPFAPPRP | 0.368
RRIRGRPPRLPRPRPRPKSKPRP | 0.611
RRIRCRPPRLPRPRPRPCTQPRP | -0.887
RRIRARPPRLPRPRPRPTRMPRP | 0.865
RRIRVRPPRLPRPRPRPPDDPRP | 0.107
RRIRKRPPRLPRPRPRPSVTPRP | -0.0473
RRIRWRPPRLPRPRPRPNDKPRP | -0.291
RRIRSRPPRLPRPRPRPRSQPRP | 0.169

Sequence | shrunken log2 fold change
RRIRWRPPRLPRPRPRPCTPPRP | -0.0412
RRIRFRPPRLPRPRPRPNVHPRP | -0.339
RRIRPRPPRLPRPRPRPWLHPRP | -0.173
RRIRMRPPRLPRPRPRPVPYPRP | 0.193
RRIRLRPPRLPRPRPRPQCNPRP | -0.0192
RRIRWRPPRLPRPRPRPICRPRP | -0.0371
RRIRKRPPRLPRPRPRPSKGPRP | -0.0301
RRIRDRPPRLPRPRPRPMTGPRP | 0.0274
RRIRYRPPRLPRPRPRPAGCPRP | -0.177
RRIRHRPPRLPRPRPRPGLDPRP | 0.269
RRIRGRPPRLPRPRPRPMELPRP | 0.271
RRIRPRPPRLPRPRPRPKVLPRP | 0.038
RRIRFRPPRLPRPRPRPHTPPRP | 1.24
RRIRCRPPRLPRPRPRPQELPRP | -0.212
RRIRYRPPRLPRPRPRPRRHPRP | -0.103
RRIRWRPPRLPRPRPRPTDAPRP | -0.0515
RRIRYRPPRLPRPRPRPGVVPRP | -0.354
RRIRNRPPRLPRPRPRPYQWPRP | -0.098
RRIRNRPPRLPRPRPRPNRNPRP | -0.91
RRIRERPPRLPRPRPRPVIRPRP | -0.305
RRIRRRPPRLPRPRPRPCKAPRP | 0.122
RRIRWRPPRLPRPRPRPEPWPRP | 0.725
RRIRIRPPRLPRPRPRPNNMPRP | -0.959
RRIRWRPPRLPRPRPRPEICPRP | 0.127
RRIRKRPPRLPRPRPRPTLNPRP | 0.505

Sequence | shrunken log2 fold change
RRIRQRPPRLPRPRPRPYKVPRP | 0.000796
RRIRYRPPRLPRPRPRPVNLPRP | -0.0688
RRIRQRPPRLPRPRPRPQTHPRP | -0.293
RRIRFRPPRLPRPRPRPVVQPRP | -0.119
RRIRTRPPRLPRPRPRPEHDPRP | -0.0214
RRIRLRPPRLPRPRPRPCIVPRP | -0.641
RRIRLRPPRLPRPRPRPFRHPRP | -0.322
RRIRMRPPRLPRPRPRPCLVPRP | 0.0451
RRIRCRPPRLPRPRPRPSATPRP | 0.593
RRIRKRPPRLPRPRPRPFFKPRP | 0.0178
RRIRERPPRLPRPRPRPVDFPRP | -0.0586
RRIRSRPPRLPRPRPRPGMMPRP | 0.227
RRIRFRPPRLPRPRPRPQFAPRP | 0.0456
RRIRNRPPRLPRPRPRPNRRPRP | -0.133
RRIRVRPPRLPRPRPRPWIAPRP | 0.201
RRIRCRPPRLPRPRPRPPINPRP | -0.319
RRIRVRPPRLPRPRPRPMIMPRP | -0.126
RRIRIRPPRLPRPRPRPTHQPRP | 0.0537
RRIRMRPPRLPRPRPRPDRPPRP | 0.107
RRIRTRPPRLPRPRPRPPNTPRP | 0.443
RRIRWRPPRLPRPRPRPAFFPRP | 0.111
RRIRERPPRLPRPRPRPKTLPRP | -0.185
RRIRTRPPRLPRPRPRPEIEPRP | -0.299
RRIRGRPPRLPRPRPRPGRVPRP | 0.554
RRIRGRPPRLPRPRPRPYCYPRP | 0.0406

Sequence | shrunken log2 fold change
RRIRWRPPRLPRPRPRPPRIPRP | 0.245
RRIRYRPPRLPRPRPRPGPRPRP | 0.744
RRIRSRPPRLPRPRPRPTHTPRP | 0.106
RRIRQRPPRLPRPRPRPVPHPRP | -0.0417
RRIRVRPPRLPRPRPRPKIFPRP | -0.00445
RRIRSRPPRLPRPRPRPEHMPRP | -0.391
RRIRARPPRLPRPRPRPISGPRP | -0.00122
RRIRGRPPRLPRPRPRPRWYPRP | 0.271
RRIRMRPPRLPRPRPRPWEQPRP | 0.0405
RRIRGRPPRLPRPRPRPTRIPRP | 0.901
RRIRKRPPRLPRPRPRPLPNPRP | -0.0104
RRIRARPPRLPRPRPRPGIAPRP | 0.331
RRIRQRPPRLPRPRPRPGCVPRP | 0.269
RRIRNRPPRLPRPRPRPWIRPRP | -0.399
RRIRCRPPRLPRPRPRPFLPPRP | -0.265
RRIRYRPPRLPRPRPRPMIPPRP | -0.727
RRIRSRPPRLPRPRPRPDLGPRP | 0.0168
RRIRKRPPRLPRPRPRPEAFPRP | 0.434
RRIRQRPPRLPRPRPRPFGFPRP | -0.233
RRIRHRPPRLPRPRPRPILKPRP | -0.348
RRIRHRPPRLPRPRPRPLPLPRP | 0.0701
RRIRPRPPRLPRPRPRPSDDPRP | -0.0663
RRIRGRPPRLPRPRPRPLLGPRP | 0.833
RRIRKRPPRLPRPRPRPAGDPRP | 0.646
RRIRCRPPRLPRPRPRPFRQPRP | -0.0498

Sequence | shrunken log2 fold change
RRIRIRPPRLPRPRPRPFNIPRP | -0.93
RRIRPRPPRLPRPRPRPIVQPRP | -0.135
RRIRWRPPRLPRPRPRPGIYPRP | -0.137
RRIRCRPPRLPRPRPRPNIMPRP | -0.896
RRIRSRPPRLPRPRPRPPCDPRP | 0.0563
RRIRVRPPRLPRPRPRPVHDPRP | -0.745
RRIRDRPPRLPRPRPRPTPRPRP | 0.792
RRIRSRPPRLPRPRPRPDLNPRP | 0.0448
RRIRLRPPRLPRPRPRPFNIPRP | -0.0972
RRIRERPPRLPRPRPRPPHMPRP | -0.152
RRIRRRPPRLPRPRPRPIDAPRP | 0.227
RRIRGRPPRLPRPRPRPLYPPRP | 0.162
RRIRTRPPRLPRPRPRPSEPPRP | -0.295
RRIRQRPPRLPRPRPRPSTNPRP | -0.364
RRIRNRPPRLPRPRPRPIVWPRP | 0.0313
RRIRERPPRLPRPRPRPMRKPRP | -0.0645
RRIRGRPPRLPRPRPRPNGNPRP | 0.0103
RRIRPRPPRLPRPRPRPTSTPRP | -0.0454
RRIRLRPPRLPRPRPRPAEWPRP | 0.0143
RRIRLRPPRLPRPRPRPTNYPRP | -0.251
RRIRIRPPRLPRPRPRPFHFPRP | -0.27
RRIRLRPPRLPRPRPRPTYGPRP | -0.0237
RRIRVRPPRLPRPRPRPSGHPRP | -0.185
RRIRHRPPRLPRPRPRPWFNPRP | -0.153
RRIRWRPPRLPRPRPRPWRVPRP | -0.245

Source: the supplement of paper PMC9112550, “Optimization of the antimicrobial peptide Bac7 by deep mutational scanning” (BMC Biology, 2022)
